Assay results taken from paper PMC10582448.

Biological target: nucleosomes reconstituted in vitro from X. laevis core histones on biotinylated pKYB1 DNA (Xenopus laevis)
Assay: optical tweezers with confocal fluorescence microscopy; nucleosomes on pKYB1 DNA tethered between streptavidin beads, in 1–2 nM fluorescently labelled chaperone; force-extension curves 1–32 pN at 20 nm/s with kymographs at 4 Hz; binding events after unwrapping / at high force (>10 pN); 25 mM HEPES, 50 mM KCl, 0.1 mM EDTA, pH 7.5

Chain of nucleophosmin 1, labelled with Alexa Fluor 532 (P06748 whole entry): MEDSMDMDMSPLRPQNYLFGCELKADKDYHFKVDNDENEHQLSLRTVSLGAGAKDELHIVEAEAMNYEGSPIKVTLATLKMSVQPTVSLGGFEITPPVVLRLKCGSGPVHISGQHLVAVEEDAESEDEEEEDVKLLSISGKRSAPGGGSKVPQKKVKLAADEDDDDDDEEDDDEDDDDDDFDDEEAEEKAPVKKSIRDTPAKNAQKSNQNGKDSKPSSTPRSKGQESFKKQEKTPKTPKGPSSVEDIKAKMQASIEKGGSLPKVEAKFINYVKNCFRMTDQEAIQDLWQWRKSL

Row | Substance | percent of the chaperone binding events found after complete unwrapping [%]
1 | nucleophosmin 1, labelled with Alexa Fluor 532 (from UniProt P06748 1-294) (natural protein) | > 90
2 | SET/template‐activating factor‐Iβ Q69C, labelled with Alexa Fluor 532 (from UniProt Q01105-2 1-277) (natural protein) | > 90
